The results in this text go back to the supplement of paper PMC12338614.

B1: library; numbered along this chain (parent)
chain: MEVVDPQQLGMFTEGELMSVGMDTFIHRIDSTEVIYQPRRKRAKLIGKYLMGDLLGEGSYGKVKEVLDSETLCRRAVKILKKKKLRRIPNGEANVKKEIQLLRRLRHKNVIQLVDVLYNEEKQKMYMVMEYCVCGMQEMLDSVPEKRFPVCQAHGYFCQLIDGLEYLHSQGIVHKDIKPGNLLLTTGGTLKISDLGVAEALHPFAADDTCRTSQGSPAFQPPEIANGLDTFSGFKVDIWSAGVTLYNITTGLYPFEGDNIYKLFENIGKGSYAIPGDCGPPLSDLLKGMLEYEPAKRFSIRQIRQHSWFRKKHPPAEAPVPIPPSPDTKDRWRSMTVVPYLEDLHGADEDEDLFDIEDDIIYTQDFTVPGQVPEEEASHNGQRRGLPKAVCMNGTEAAQLSTKSRAEGRAPNPARKACSASSKIRRLSACKQQ

± gives the uncertainty stated by the source.

Variants of B1 are the subject of the data set. Put plainly: STK11 functional score (HeLa growth suppression), rescaled enrichment; synonymous median = 1, nonsense median = 0 (normalised score). Conditions: with HeLa; variant type: missense. The method in brief: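 The functional score takes the post/pre-selection log ratio, corrects it to wild type, rescales it to synonymous and nonsense medians, and merges it over codons and replicate transfections, with error from bootstrapping. Counts came from tiled gDNA amplicons sequenced on NextSeq (~2 million reads per tile). The libraries were POPCode codon-randomised, codon-optimised STK11 integrated by Bxb1 at an AAVS1 landing pad in HeLa, three regions with three transfections each.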
As for MEVVDPQQLGMFTEGELMSVGMDTFIHRIDSTEVIYQPRRKRAKLIGKYLMGDLLGEGSYGKVKEVLDSETLCRRAVKILKKKKLRRIPNGEANVKKEIQLLRRLRHKNVIQLVDVLYNEEKQKMYMVMEYCVCGMQEMLDSVPEKRFPVCQAHGYFCQLIDGLEYLHSQGIVHKDIKPGNLLLTTGGTLKISDLGVAEALHPFAADDTCRTSQGSPAFQPPEIANGLDTFSGFKVDIWSAGVTLYNITTGLYPFEGDNIYKLFENIGKGSYAIPGDCGPPLSDLLKGMLEYEPAKRFSIRQIRQHSWFRKKHPPAEAPVPIPPSPDTKDRWRSMTVVPYLEDLHGADEDEDLFDITDDIIYTQDFTVPGQVPEEEASHNGQRRGLPKAVCMNGTEAAQLSTKSRAEGRAPNPARKACSASSKIRRLSACKQQ [E357T], the STK11 functional score came to 1.56 ± 0.17.

On to MEVVDPQQLGMFTEGELMSVGMDTFIHRIDSTEVIYQPRRKRAKLIGKYLMGDLLGEGSYGKVKEVLDSETLCRRAVKILKKKKLRRIPNGEANVKKEIQLLRRLRHKNVIQLVDVLYNEEKQKMYMVMEYCVCGMQEMLDSVPEKRFPVCQAHGYFCQLIDGLEYLHSQGIVHKDIKPGNLLLTTGGTLKISDLGVAEALHPFAADDTCRTSQGSPAFQPPEIANGLDTFSGFKVDIWSAGVTLYNITTGLYPFEGDNIYKLFENIGKGSYAIPGDCGPPLSDLLKGMLEYEPAKRFSIRQIRQHSWFRKKHPPAEAPVPIPPSPDTKDRWRSMTVVPYLEDLHGADEDEDLFDIVDDIIYTQDFTVPGQVPEEEASHNGQRRGLPKAVCMNGTEAAQLSTKSRAEGRAPNPARKACSASSKIRRLSACKQQ [E357V], for which the STK11 functional score was determined as 1.33 ± 0.25.

On to MEVVDPQQLGMFTEGELMSVGMDTFIHRIDSTEVIYQPRRKRAKLIGKYLMGDLLGEGSYGKVKEVLDSETLCRRAVKILKKKKLRRIPNGEANVKKEIQLLRRLRHKNVIQLVDVLYNEEKQKMYMVMEYCVCGMQEMLDSVPEKRFPVCQAHGYFCQLIDGLEYLHSQGIVHKDIKPGNLLLTTGGTLKISDLGVAEALHPFAADDTCRTSQGSPAFQPPEIANGLDTFSGFKVDIWSAGVTLYNITTGLYPFEGDNIYKLFENIGKGSYAIPGDCGPPLSDLLKGMLEYEPAKRFSIRQIRQHSWFRKKHPPAEAPVPIPPSPDTKDRWRSMTVVPYLEDLHGADEDEDLFDIWDDIIYTQDFTVPGQVPEEEASHNGQRRGLPKAVCMNGTEAAQLSTKSRAEGRAPNPARKACSASSKIRRLSACKQQ [E357W], for which the STK11 functional score worked out at 0.957 ± 0.15.

For the variant MEVVDPQQLGMFTEGELMSVGMDTFIHRIDSTEVIYQPRRKRAKLIGKYLMGDLLGEGSYGKVKEVLDSETLCRRAVKILKKKKLRRIPNGEANVKKEIQLLRRLRHKNVIQLVDVLYNEEKQKMYMVMEYCVCGMQEMLDSVPEKRFPVCQAHGYFCQLIDGLEYLHSQGIVHKDIKPGNLLLTTGGTLKISDLGVAEALHPFAADDTCRTSQGSPAFQPPEIANGLDTFSGFKVDIWSAGVTLYNITTGLYPFEGDNIYKLFENIGKGSYAIPGDCGPPLSDLLKGMLEYEPAKRFSIRQIRQHSWFRKKHPPAEAPVPIPPSPDTKDRWRSMTVVPYLEDLHGADEDEDLFDIYDDIIYTQDFTVPGQVPEEEASHNGQRRGLPKAVCMNGTEAAQLSTKSRAEGRAPNPARKACSASSKIRRLSACKQQ [E357Y], the STK11 functional score was 1.39 ± 0.26.

Turning to MEVVDPQQLGMFTEGELMSVGMDTFIHRIDSTEVIYQPRRKRAKLIGKYLMGDLLGEGSYGKVKEVLDSETLCRRAVKILKKKKLRRIPNGEANVKKEIQLLRRLRHKNVIQLVDVLYNEEKQKMYMVMEYCVCGMQEMLDSVPEKRFPVCQAHGYFCQLIDGLEYLHSQGIVHKDIKPGNLLLTTGGTLKISDLGVAEALHPFAADDTCRTSQGSPAFQPPEIANGLDTFSGFKVDIWSAGVTLYNITTGLYPFEGDNIYKLFENIGKGSYAIPGDCGPPLSDLLKGMLEYEPAKRFSIRQIRQHSWFRKKHPPAEAPVPIPPSPDTKDRWRSMTVVPYLEDLHGADEDEDLFDISDDIIYTQDFTVPGQVPEEEASHNGQRRGLPKAVCMNGTEAAQLSTKSRAEGRAPNPARKACSASSKIRRLSACKQQ [E357S], the STK11 functional score is 1.52 ± 0.15.

Take MEVVDPQQLGMFTEGELMSVGMDTFIHRIDSTEVIYQPRRKRAKLIGKYLMGDLLGEGSYGKVKEVLDSETLCRRAVKILKKKKLRRIPNGEANVKKEIQLLRRLRHKNVIQLVDVLYNEEKQKMYMVMEYCVCGMQEMLDSVPEKRFPVCQAHGYFCQLIDGLEYLHSQGIVHKDIKPGNLLLTTGGTLKISDLGVAEALHPFAADDTCRTSQGSPAFQPPEIANGLDTFSGFKVDIWSAGVTLYNITTGLYPFEGDNIYKLFENIGKGSYAIPGDCGPPLSDLLKGMLEYEPAKRFSIRQIRQHSWFRKKHPPAEAPVPIPPSPDTKDRWRSMTVVPYLEDLHGADEDEDLFDIEADIIYTQDFTVPGQVPEEEASHNGQRRGLPKAVCMNGTEAAQLSTKSRAEGRAPNPARKACSASSKIRRLSACKQQ [D358A]: the STK11 functional score was 1.27 ± 0.15.

MEVVDPQQLGMFTEGELMSVGMDTFIHRIDSTEVIYQPRRKRAKLIGKYLMGDLLGEGSYGKVKEVLDSETLCRRAVKILKKKKLRRIPNGEANVKKEIQLLRRLRHKNVIQLVDVLYNEEKQKMYMVMEYCVCGMQEMLDSVPEKRFPVCQAHGYFCQLIDGLEYLHSQGIVHKDIKPGNLLLTTGGTLKISDLGVAEALHPFAADDTCRTSQGSPAFQPPEIANGLDTFSGFKVDIWSAGVTLYNITTGLYPFEGDNIYKLFENIGKGSYAIPGDCGPPLSDLLKGMLEYEPAKRFSIRQIRQHSWFRKKHPPAEAPVPIPPSPDTKDRWRSMTVVPYLEDLHGADEDEDLFDIENDIIYTQDFTVPGQVPEEEASHNGQRRGLPKAVCMNGTEAAQLSTKSRAEGRAPNPARKACSASSKIRRLSACKQQ [D358N]: the STK11 functional score worked out at 0.776 ± 0.53.

Consider MEVVDPQQLGMFTEGELMSVGMDTFIHRIDSTEVIYQPRRKRAKLIGKYLMGDLLGEGSYGKVKEVLDSETLCRRAVKILKKKKLRRIPNGEANVKKEIQLLRRLRHKNVIQLVDVLYNEEKQKMYMVMEYCVCGMQEMLDSVPEKRFPVCQAHGYFCQLIDGLEYLHSQGIVHKDIKPGNLLLTTGGTLKISDLGVAEALHPFAADDTCRTSQGSPAFQPPEIANGLDTFSGFKVDIWSAGVTLYNITTGLYPFEGDNIYKLFENIGKGSYAIPGDCGPPLSDLLKGMLEYEPAKRFSIRQIRQHSWFRKKHPPAEAPVPIPPSPDTKDRWRSMTVVPYLEDLHGADEDEDLFDIECDIIYTQDFTVPGQVPEEEASHNGQRRGLPKAVCMNGTEAAQLSTKSRAEGRAPNPARKACSASSKIRRLSACKQQ [D358C], for which the STK11 functional score amounted to 1.53 ± 0.14.

For MEVVDPQQLGMFTEGELMSVGMDTFIHRIDSTEVIYQPRRKRAKLIGKYLMGDLLGEGSYGKVKEVLDSETLCRRAVKILKKKKLRRIPNGEANVKKEIQLLRRLRHKNVIQLVDVLYNEEKQKMYMVMEYCVCGMQEMLDSVPEKRFPVCQAHGYFCQLIDGLEYLHSQGIVHKDIKPGNLLLTTGGTLKISDLGVAEALHPFAADDTCRTSQGSPAFQPPEIANGLDTFSGFKVDIWSAGVTLYNITTGLYPFEGDNIYKLFENIGKGSYAIPGDCGPPLSDLLKGMLEYEPAKRFSIRQIRQHSWFRKKHPPAEAPVPIPPSPDTKDRWRSMTVVPYLEDLHGADEDEDLFDIEGDIIYTQDFTVPGQVPEEEASHNGQRRGLPKAVCMNGTEAAQLSTKSRAEGRAPNPARKACSASSKIRRLSACKQQ [D358G], the STK11 functional score was determined as 1.08 ± 0.14.

Regarding MEVVDPQQLGMFTEGELMSVGMDTFIHRIDSTEVIYQPRRKRAKLIGKYLMGDLLGEGSYGKVKEVLDSETLCRRAVKILKKKKLRRIPNGEANVKKEIQLLRRLRHKNVIQLVDVLYNEEKQKMYMVMEYCVCGMQEMLDSVPEKRFPVCQAHGYFCQLIDGLEYLHSQGIVHKDIKPGNLLLTTGGTLKISDLGVAEALHPFAADDTCRTSQGSPAFQPPEIANGLDTFSGFKVDIWSAGVTLYNITTGLYPFEGDNIYKLFENIGKGSYAIPGDCGPPLSDLLKGMLEYEPAKRFSIRQIRQHSWFRKKHPPAEAPVPIPPSPDTKDRWRSMTVVPYLEDLHGADEDEDLFDIEEDIIYTQDFTVPGQVPEEEASHNGQRRGLPKAVCMNGTEAAQLSTKSRAEGRAPNPARKACSASSKIRRLSACKQQ [D358E], the STK11 functional score is 0.693 ± 0.27.

Regarding MEVVDPQQLGMFTEGELMSVGMDTFIHRIDSTEVIYQPRRKRAKLIGKYLMGDLLGEGSYGKVKEVLDSETLCRRAVKILKKKKLRRIPNGEANVKKEIQLLRRLRHKNVIQLVDVLYNEEKQKMYMVMEYCVCGMQEMLDSVPEKRFPVCQAHGYFCQLIDGLEYLHSQGIVHKDIKPGNLLLTTGGTLKISDLGVAEALHPFAADDTCRTSQGSPAFQPPEIANGLDTFSGFKVDIWSAGVTLYNITTGLYPFEGDNIYKLFENIGKGSYAIPGDCGPPLSDLLKGMLEYEPAKRFSIRQIRQHSWFRKKHPPAEAPVPIPPSPDTKDRWRSMTVVPYLEDLHGADEDEDLFDIEIDIIYTQDFTVPGQVPEEEASHNGQRRGLPKAVCMNGTEAAQLSTKSRAEGRAPNPARKACSASSKIRRLSACKQQ [D358I], the STK11 functional score was 1.15 ± 0.46.

With MEVVDPQQLGMFTEGELMSVGMDTFIHRIDSTEVIYQPRRKRAKLIGKYLMGDLLGEGSYGKVKEVLDSETLCRRAVKILKKKKLRRIPNGEANVKKEIQLLRRLRHKNVIQLVDVLYNEEKQKMYMVMEYCVCGMQEMLDSVPEKRFPVCQAHGYFCQLIDGLEYLHSQGIVHKDIKPGNLLLTTGGTLKISDLGVAEALHPFAADDTCRTSQGSPAFQPPEIANGLDTFSGFKVDIWSAGVTLYNITTGLYPFEGDNIYKLFENIGKGSYAIPGDCGPPLSDLLKGMLEYEPAKRFSIRQIRQHSWFRKKHPPAEAPVPIPPSPDTKDRWRSMTVVPYLEDLHGADEDEDLFDIELDIIYTQDFTVPGQVPEEEASHNGQRRGLPKAVCMNGTEAAQLSTKSRAEGRAPNPARKACSASSKIRRLSACKQQ [D358L], the STK11 functional score turned out to be 1.56 ± 0.17.

Regarding MEVVDPQQLGMFTEGELMSVGMDTFIHRIDSTEVIYQPRRKRAKLIGKYLMGDLLGEGSYGKVKEVLDSETLCRRAVKILKKKKLRRIPNGEANVKKEIQLLRRLRHKNVIQLVDVLYNEEKQKMYMVMEYCVCGMQEMLDSVPEKRFPVCQAHGYFCQLIDGLEYLHSQGIVHKDIKPGNLLLTTGGTLKISDLGVAEALHPFAADDTCRTSQGSPAFQPPEIANGLDTFSGFKVDIWSAGVTLYNITTGLYPFEGDNIYKLFENIGKGSYAIPGDCGPPLSDLLKGMLEYEPAKRFSIRQIRQHSWFRKKHPPAEAPVPIPPSPDTKDRWRSMTVVPYLEDLHGADEDEDLFDIEPDIIYTQDFTVPGQVPEEEASHNGQRRGLPKAVCMNGTEAAQLSTKSRAEGRAPNPARKACSASSKIRRLSACKQQ [D358P], the STK11 functional score was found to be 0.725 ± 0.8.

Regarding MEVVDPQQLGMFTEGELMSVGMDTFIHRIDSTEVIYQPRRKRAKLIGKYLMGDLLGEGSYGKVKEVLDSETLCRRAVKILKKKKLRRIPNGEANVKKEIQLLRRLRHKNVIQLVDVLYNEEKQKMYMVMEYCVCGMQEMLDSVPEKRFPVCQAHGYFCQLIDGLEYLHSQGIVHKDIKPGNLLLTTGGTLKISDLGVAEALHPFAADDTCRTSQGSPAFQPPEIANGLDTFSGFKVDIWSAGVTLYNITTGLYPFEGDNIYKLFENIGKGSYAIPGDCGPPLSDLLKGMLEYEPAKRFSIRQIRQHSWFRKKHPPAEAPVPIPPSPDTKDRWRSMTVVPYLEDLHGADEDEDLFDIEHDIIYTQDFTVPGQVPEEEASHNGQRRGLPKAVCMNGTEAAQLSTKSRAEGRAPNPARKACSASSKIRRLSACKQQ [D358H], the STK11 functional score worked out at 0.325 ± 0.53.
